Assay: yeast display, Sf9 membrane polyspecificity reagent, FACS + sequencing; frameworks hold sequencing errors
Procedure, shortened: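 Galactose-induced (36–48 hours) yeast carrying a synthetic nanobody display library were exposed to 10% biotinylated, detergent-solubilized Sf9 membrane reagent at 4 °C for 1 hour. FACS followed streptavidin microbead enrichment, using low and high (top ~1%) gates for expression (anti-HA) and reagent binding (streptavidin). Colony PCR, MiSeq 2 × 250 sequencing and CDR-length filtering followed. Labels for polyreactivity reflect the gate of origin.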

Row | Sequence | polyreactivity (PSR sort gate)
1 | QVQLVESGGGLVQAGGSLRLSCAASGSIFPYNVMGWYRQAPGKERELVAAITRRGGSTYYADSVKGRFTISRDNAKNTVYLQMNSLKPEDTAVYYCAAVPYPRGKGYDYWGQGTQVTVSS | high polyreactivity
2 | QVQLVESGGGLVQAGGSLRISCAASGFIIFEYDMGWYRQAPGKERDFVAAINFSGGSTYYADSEKGRFTISRDNAKNTVYLQMNSLKPEDTAVYYCAADVVRYYYTYDYWGQGTQVTVSS | low polyreactivity
3 | QVQLVDSGGGLVQAGGSLRLRSAASGFTFCTYDMGWYRQAPGKERELVAAIDSGGSTYYADSVKGRFTISRDNAKNNVYLQMNSLKPEDTAVYYCNKVVDYFWYVEYDYWGQVTQVTVSS | low polyreactivity
4 | QVQLVESGGGLVQAGGSLRLSCAASGSILSYNAMGWYRQAPGKERELVATITGTGGSTRYADSVKGRFTISRDNAKNTVYLQMNSLKPEDTAVYYCATAAWWYYRIYHEFGYWGQGTQVTVSS | high polyreactivity
5 | QVQLVESGGGLVQAGGSLRLSCAASGRTFRRYAMGWYRQAPGKERELVASISTSGGSTYADSVKGRFTISRDNAKNTVYLQMNSLKPEDTAVYYCAVRSPRYVRNGDYWGQGTQVTVSS | high polyreactivity
6 | QVQLVESGGGLVQAGGSLRLSCAASGSIFWYNAMGWYRQAPGKERELVAAIDRSGGNTYYADSVKGRFTISRDNAKNTVYLQMNSLKPEDTAVYYCARRIGRTYRYVYWGQGTQVTVSS | high polyreactivity
7 | QVQLVESGGGLVQAGGRLRLSCAASGLIFPAYAMGWYRQAPGKERELVATITWRGGSTYYADSVKGRFTISRDNAKNTVYLQMNSLKPEDTAVDYCATRPRYYYFRYDYWGQGTQVTVSS | high polyreactivity
8 | QVQLVESGGGLVQAGGSLRLSCAASGSIFSDYAMGWYRQAPGEERELVAAINSGVSTSYADSVKGRFTISRDNAKNTVYLQMNSLKPEDTAVYYCAKDGSSPSPWYGGFGYWGQGTQVTVSS | low polyreactivity
9 | QVQLVESGGGLVQAGGSLRLSCAASGSIFSSNAMGWYRPAPGKERELVAAITSGGSTTYADSVKGRFTISRDNAKNTVYLQMNSLKPEDTAVYYCNARNYYYPSDRDYWGQGTQVTVSS | low polyreactivity
10 | QVQLVESVGGLVQAGGSLRLSCAASGIIFVGYAMGWYRPAPGKERELVSAIDLSGDSTYYADSVKGRFTISRDNAKNTVYLQMNSLKPEDTAVYYCAAGYWHRVNGDYDYWGQGTQVTVSS | high polyreactivity
11 | QVQLVESGGGLVQAGGSLRLSCAASGSTFGYNAMGWYRQAPGKERELVAAIRRSGGSTYYADSVKGRFTISRDNAKNTVYLQMNSLKPEDTAVYYCAAAGGKRHEYWGQGTQVTVSS | high polyreactivity
12 | QVQLVESGGGLVQAGGSLRLSCAASGRTFTYYAMGWYRQAPGKERELVAAITSGGRTYYADSVKGRFTISRDNAKNTVYLQMKSLKPEDTAVYYCAARRIRDYYRSYDYWGQGTQVTVSS | high polyreactivity
13 | QVQLVESGGGLVQAGGSLRLSCAASGIFTRYAMGWYRQAPGKERELVAAISRGGGSTYYADSVKGLFTISRDNAKNTCYLQMNSLKPEDTAVYYCNTYKRPRSPGPKFYYWGEGTQVTVSS | high polyreactivity
14 | QVQLVESGVGLVQAGGSLRLSCAATGSIFRVNAMGWYRQAPGKERELVAGIRWRGGSTYYADSVKGRFTISRDNAKNTVYLQMNSLKPEDTAVYYCAARSYPFIATYGYWGQGTQVTVSS | high polyreactivity
15 | QVQLVESGGGLVQEGGSLRLSCAASGLIFNRYDMGWYRQAPGKVTELVAAITSRGGRTYYADSVKGRFTISLDNAKTTVYLQMNSLKPEDTAVYYCNRTPTGSSLYGMDYWGQGTQVTVSS | high polyreactivity
16 | QVQLVESGGGLVQAGGSLRLSCAASGRTFYSYAMGWYRQAPGTEREFVAAINWSGTSTYADSVKGRFTISRDNAKNTVYLQMNSLKPEDTAVYYCAKTYRTLVRYWGQPFGYWGQGTQVTVSS | high polyreactivity
17 | QVQLVESGGGLVQAGGSLRLSCAASGFTFLINAMGWYRQAPGKERELVAAIRSGGSTNYADSVKGRFTISRDNAKNSVYLQMNSLKPEDTAVYYCAARRYYPYKYRYGYWGQGTQVTVSS | high polyreactivity
18 | EEELVESGGGLVQAGVSLRISCAASGSIFNYNAMGWYRQAPGKERELVAAISRGGTTNYADSVKGRFTISRDNANNTVYLQMNSLKPEDTAVYYCAAKAYDYYGPVYYWGQGSQVTVSS | high polyreactivity
19 | QVQLVESGGGLVQAGGSLRLSCAASGFIFGGYAMGWYIQGHGKERELVAAISSSGGSTYYADSVKGRFTISRDNAKNSVYLQMNSLKPEDTAVYYCAKVGWSRRYYYWGQGTKVTVSS | high polyreactivity
20 | QVQLVESAGGLVQAGGSLRLSCAASGLIFARNSMGWYRQAPGKERELVAAISKRGGSTFYADSVKGRFTISRDNAKNTVYLQMNSLKPVDTAVYYWNARSSETWHGDYWGQGTQVTVSS | high polyreactivity
21 | QVQLVESGGGLVQAGGRLRLSCAASGRIFLGNVMGWYRQAPGKERELVAAISSGGSTNYADSVKGRFTISRDNAKNTVYLQMNSLKPEDTAVYYCAAYFVRDWKLYYYWGQGTQVTVSS | low polyreactivity
22 | QVQLVESGGGLVQAGGSLRLSCAASGFAFGVYAMGWDRQAAGKERELVAAITRSGGSTYYADSVKGRFTISRDNAKNTVYLQMNSLKPEDTAVYYCAARARDHYGYWGQGTQVTVSS | high polyreactivity

Row | Sequence | polyreactivity (PSR sort gate)
23 | QVQLQESGGGLVQAGGSLRLSCAASGTISPLPAMGWYRQAPGKEREFVAGIDTGAITNYADSVKGRFTISRDNAKNTVYLQMNSLKPEDTAVYYCAVFPAAYDYYERYYTYWGQGTQVTVSS | high polyreactivity
24 | QVQLVESGVGLVQAGGSLRLSCAASGIIFLENAMGWYRQAPGKERELVAGISSGGNTNYADSVKGRFTISRDNAKNTDYLQMNSLKPEDTAVYYCNTDWYLPRYVLLGYFSGTEDSWGQGTQVTVSS | low polyreactivity
25 | QVQLVESGGGLVQAGGSLRLSCAASGSIFRGNALGWYRQAPGKERELVAAITGSGGNTYYADSVKGRFTISRDNAKNTVYLQMNSLKPEDTAVYYCNAQRYRVVVYNSHGWQTRNYWGQGTQVTVSS | low polyreactivity
26 | QVQLVESGGGIVQEGGSLSLSCAASGRIFFDYAMGWYRQAPGKERELVADIDWSGGITYYADSVKGRYTISRDNAKNTVYLQMNSLNPEDTAVYYCAVEFDELYPTTAYGEFEYWGQVTQVTVSS | high polyreactivity
27 | QVQLVESGGGLVQAGGSLRLSCAASGRIFGYYAMGWYRQAPGKERELVAAISSSDGSTYYADSVKGRFTISRDNAKNTVYLQMNSLKPEDTAVYYCAASYYNWDVYQLSYRYDYWGQGTQVTVSS | low polyreactivity
28 | QVQLVESGGGLVQAGGSLRLSCAASGSIFADNAMGWYRQAPGKERELVAAITRGGSTYYADSVKGRFTISRDNAKNTVYLQMNSLKPEDTAVYYCAAGTTTYSVNEVPVREGYDYWGQGTQVTVSS | low polyreactivity
29 | QVQHVESGGGLVQAGGSLRLSCAASGRTFRSYAMGWYRQAPGKEREFVATITRRGGSTYYADSVKGRFTISRDNAKNTVYLQMNSLKPEDTAVYYCNAVVSSQEYDYWGQGTQVTVSS | high polyreactivity
30 | QVQLVESGGGLVQAGGSLRLSCAASGITFFDYAMGWSRQAPGKERELVAAIDLSDGRTYYADSVKGRFTISRDNAKNTFYLQMNSLKPEDTAVYYCAAVSTSLYWAGYDYWGQGTQVTVSS | low polyreactivity
31 | QVQLVESGGGLVQAGGSLRLSCAASGFIFDWYAMGWYRQAPGKERELVAAISYSGGSTYYADSVKGRFTISRDNAKNTVYLQMNSLKPEDTAVYYCNADIWYGDMDYWGQGTQVTVSS | high polyreactivity
32 | QVQLVESGGGLVQAGGSLRLSCAASGRIFVIYAMGWYRQAPGKERELVAVINDDGSTNYADSVKGRFTISRDNAKNTVYLQMNSLKPEDTAVYYCAARGGRPLIHHWPWYSWKYDYWGQGTQVTVSS | low polyreactivity
33 | QVQLVESGGGLVQAGGSLRLSCAASGSTFNRYAMGWYRQEPGTERELVASIRISGGSTYYADSVKGRFTISRDNAKNTVYLQMNSLKPEDTAVYYCNAKLFIRWFTYDFLGQGTQVTVSS | low polyreactivity
34 | QVQLVESGGGLVQAGGSLRLSCAASGSTFKIYAMGWYRQAPGKERELVAAITRGGSTNYADSVKGRFTISRDNAKNTVYLQMNSLKPEDTAVYYCAASYWYRRYGTYTYDYWGQGTQVTVSS | high polyreactivity
35 | QVQLVESGGGLVQAGGSLRISCAASGRIFKVYAMGWYRQAPGKERELVAAMSRSGGSTYYADSVKGRFTISRDNAKKTVYFQMNSLKPEDTAVYYCHAYFVYGHACGYDYWGQGSQVTVSS | high polyreactivity
36 | QVQLVESGGGLVQAGGSLRLSCAASGFTFRSYAMGLYRQAPGKEREFVAAINGRSGSTYADSVKGRFTISRDNAKNTVYLQMISLKPEDTAVYYCAARVRRGSTQAQFYYWGQGTQVTVSS | high polyreactivity
37 | QVQLVESGGGLVQAGGSLRLSCAASGLTFAYYDMGWYRPAPGKERELVAAITSGGTTNYADSVKGRFTISRDNAKNTVYLQMNSQKPEDTADYYCAADRYYWGRYTLNYWGQGTQVTVSS | low polyreactivity
38 | QVQLQESGGGLVQAGGSLRLSCAASGTISVHASMGWYRQAPGKERELVAGITDGANTYYADSVKGRFTISRDNSKNTVYLQMNSLKPEDTAVYYCAAYYGTEVHFTYWGQGTQVTVSS | low polyreactivity
39 | QVQLVESGGGLVQAGGSLRLSCAASGRTFYPYAMGWYRQAPGKERELVARISRGGRTNYADSVKGRFTISRDNAKNTVYLQMNSLKPEDTAVYYCAADYYGSYFITEDYWGQGTQVTVSS | low polyreactivity
40 | QDQLVESVGGLVQAGGSLRLSCAASGITFRYYTMGWYRQAPGKESELVAVISWSGGSTYYADSVKGRFTISRDNAKNTVYLQMNSLKPEDTAVYYCAAVRRISRYDYWGQGTQVTVSS | high polyreactivity
41 | QVQLVESGGGLVQAGGSLRLSCAASGRIFPLYTMGWYRQAPGKERELVAAITSIGGSTYYADSVKGRFTISRDNAKNTVYLQMNSLKPEDTAVYYCNAQYRPLTSWYKMDYWGQGTQVTVSS | high polyreactivity
42 | QVQLVESGGGLVQAGGSLRLSCAASGSIFDRYAMGWYRQAPGKERELVASIRQRGGSTYYADSVKGRFTISRDNAKNTVYLQMNSLKPEDTAVYYCAARKYPFRQSTYDYWGQGTQVTVSS | low polyreactivity
43 | QVQLVESGGGLVQAGGSLRLTFAASGINLYDNVMGWYRTAPGKERELVAAISSSGTTKYYADSVKGRFTISRDYAKNTFYLQMNSLNPEDTAVYYCAADGITWYAIAYYYWGQGTQVTVSS | high polyreactivity

From the nanobody polyreactivity screen of Harvey et al. (2022)
